{"source": "paper PMC10113255", "about": "“PHF14 enhances DNA methylation of SMAD7 gene to promote TGF-β-driven lung adenocarcinoma metastasis”", "binders": {"B1": {"name": "CG-rich probe, unmethylated (dsDNA)", "DNA 1": "ACGGCTCGTCGCTACGGCTCGTCGCT", "DNA 2": "AGCGACGAGCCGTAGCGACGAGCCGT"}}, "target": "T1, PHF14 ePHD domain E430A K435A (Homo sapiens, UniProt O94880 382-499, E430A;K435A)", "T1 sequence": "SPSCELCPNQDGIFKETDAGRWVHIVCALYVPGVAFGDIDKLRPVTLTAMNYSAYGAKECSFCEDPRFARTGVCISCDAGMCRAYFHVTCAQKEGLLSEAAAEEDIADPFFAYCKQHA", "assay": "SPR; protein immobilized on CM5; SPR: HBS-P (10 mM HEPES pH 7.4, 150 mM NaCl, 0.05% P20), 25 °C, 1:1 Langmuir fit; EMSA: LightShift kit protocol, 0.5x TBE native PAGE, buffer not stated", "conditions": "protein: recombinant; tags: His (EMSA, purification method); FLAG (SPR); label: biotin (EMSA); blunt", "data": [{"binder": "B1", "values": [{"measurement": "Kd", "result": 275, "unit": "nM"}]}]}
